Assay results as given in PMC4423211 (2015).

Legend:
[1] = biological target: IL1RAPL1-ECD-His6, wild type (mouse) (UniProt P59823)
[2] = biological target: IL-1RAcP-ECD-Fc, wild type (mouse) (UniProt Q61730); test: SPR; equilibrium; Biacore T200, 25 °C, 10 mM Hepes (pH 7.9), 150 mM NaCl, 0.05% Tween-20; IL-1RAcP-ECD-Fc captured (about 700 RU) by anti-Fc antibodies immobilised on a CM5 chip; PTPδ Ig1–Fn1 variants or mutants injected as analytes, 15.6 to 4,000 nM
[3] = biological target: IL1RAPL1-ECD-His6, wild type (mouse) (UniProt P59823); test: SPR; equilibrium; Biacore T200, 25 °C, 10 mM Hepes (pH 7.9), 150 mM NaCl, 0.05% Tween-20; IL1RAPL1-ECD-His6 amine-coupled on a CM5 chip (about 2,000 RU); PTPδ Ig1–Fn1 variants or mutants injected as analytes, 15.6 to 4,000 nM
IL1RAP = biological target: T1, IL1RAP (Mus musculus (Mouse), UniProt Q61730); test: SPR equilibrium 25C, PTPRD Ig1-Fn1 analyte
T1 chain: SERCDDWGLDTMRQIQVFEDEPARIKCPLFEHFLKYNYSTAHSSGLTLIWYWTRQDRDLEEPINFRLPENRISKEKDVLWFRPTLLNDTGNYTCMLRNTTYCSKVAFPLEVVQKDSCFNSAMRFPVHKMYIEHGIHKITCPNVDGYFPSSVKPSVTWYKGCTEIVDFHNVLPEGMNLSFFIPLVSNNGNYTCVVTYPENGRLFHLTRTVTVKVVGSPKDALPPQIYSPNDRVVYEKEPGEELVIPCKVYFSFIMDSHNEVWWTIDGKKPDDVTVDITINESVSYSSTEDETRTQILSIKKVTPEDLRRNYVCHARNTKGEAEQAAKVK

IL1RAPL1 = biological target: T2, IL1RAPL1 (Mus musculus (Mouse), UniProt P59823); test: SPR equilibrium 25C, PTPRD Ig1-Fn1 analyte
T2 chain: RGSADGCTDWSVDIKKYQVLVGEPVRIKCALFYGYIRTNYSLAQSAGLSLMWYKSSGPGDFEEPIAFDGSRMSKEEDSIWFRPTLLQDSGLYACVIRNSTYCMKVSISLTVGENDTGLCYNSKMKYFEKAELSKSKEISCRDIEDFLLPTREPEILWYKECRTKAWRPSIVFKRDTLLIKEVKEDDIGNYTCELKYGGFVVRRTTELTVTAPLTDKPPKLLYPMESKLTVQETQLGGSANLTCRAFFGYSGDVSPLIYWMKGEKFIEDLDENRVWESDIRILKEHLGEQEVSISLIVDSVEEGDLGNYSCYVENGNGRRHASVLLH

Sequence of IL1RAPL1-ECD-His6, wild type (mouse) (P59823 19-352): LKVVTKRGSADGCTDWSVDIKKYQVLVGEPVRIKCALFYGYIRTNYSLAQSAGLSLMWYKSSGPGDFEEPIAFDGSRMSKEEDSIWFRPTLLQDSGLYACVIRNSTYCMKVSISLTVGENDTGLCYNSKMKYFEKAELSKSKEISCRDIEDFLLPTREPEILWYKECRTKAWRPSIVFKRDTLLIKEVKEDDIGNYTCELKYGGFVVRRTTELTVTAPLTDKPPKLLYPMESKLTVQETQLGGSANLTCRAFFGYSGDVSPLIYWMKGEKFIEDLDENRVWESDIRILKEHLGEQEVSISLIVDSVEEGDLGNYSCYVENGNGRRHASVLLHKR

Row | Molecule | Kd [2] [µM] | Kd [3] [µM] | Kd (IL1RAP) [µM] | Kd (IL1RAPL1) [µM] | further results
1 | PTPδ Ig1–Fn1 R75A (domain or fragment) | 1.1 | 2.8 |  |  | synaptogenic (postsynapse-inducing) activity: accumulation of Shank2 in cortical neurons around magnetic beads conjugated with PTPδ-ECD-Fc R75A, against wild-type PTPδ-ECD-Fc [1]: 7%
2 | PTPδ Ig1–Fn1 splicing variant −/+ (no meA, with meB) (domain or fragment) | 2.2 |  |  |  | 
3 | PTPδ Ig1–Fn1 Y273A (domain or fragment) |  | 0.86 |  |  | 
4 | PTPδ Ig1–Fn1 splicing variant meA6/− (domain or fragment) | 2.3 |  |  |  | 
5 | PTPδ Ig1–Fn1 splicing variant meA9/− (domain or fragment) | 2 | 0.8 |  |  | 
6 | PTPδ Ig1–Fn1 splicing variant meA3/+ (domain or fragment) | 0.51 |  |  |  | 
7 | PTPδ Ig1–Fn1 splicing variant meA3/− (domain or fragment) | 2.8 |  |  |  | 
8 | PTPδ Ig1–Fn1, meB replaced by Gly-Ser-Ser-Gly (domain or fragment) | 0.64 | 0.14 |  |  | 
9 | PTPδ Ig1–Fn1 E286A (domain or fragment) | 5.3 |  |  |  | 
10 | PTPδ Ig1–Fn1, meB replaced by two tandem units of meB (domain or fragment) | 1.5 | 0.15 |  |  | 
11 | PTPδ Ig1–Fn1 R196A (domain or fragment) | 0.89 | 1.7 |  |  | 
12 | PTPRD_A6B1 (protein) ETPPRFTRTPVDQTGVSGGVASFICQATGDPRPKIVWNKKGKKVSNQRFEVIEFDDGSGSVLRIQPLRTPRDEAIYECVASNNVGEISVSTRLTVLREDQIPRGFPTIDMGPQLKVVERTRTATMLCAASGNPDPEITWFKDFLPVDTSNNNGRIKQLRSGGTPIRGALQIEQSEESDQGKYECVATNSAGTRYSAPANLYVRELREVRRVPPRFSIPPTNHEIMPGGSVNITCVAVGSPMPYVKWMLGAEDLTPEDDMPIGRNVLELNDVRQSANYTCVAMSTLGVIEAIAQITVKA |  |  | 0.73 | 0.81 | 
13 | PTPRD_A3B0 (protein) ETPPRFTRTPVDQTGVSGGVASFICQATGDPRPKIVWNKKGKKVSNQRFEVIEFDDGSGSVLRIQPLRTPRDEAIYECVASNNVGEISVSTRLTVLREDQIPRGFPTIDMGPQLKVVERTRTATMLCAASGNPDPEITWFKDFLPVDTSNNNGRIKQLRSESIGALQIEQSEESDQGKYECVATNSAGTRYSAPANLYVRVRRVPPRFSIPPTNHEIMPGGSVNITCVAVGSPMPYVKWMLGAEDLTPEDDMPIGRNVLELNDVRQSANYTCVAMSTLGVIEAIAQITVKA |  |  | 2.8 | > 4 | 
14 | PTPRD_A0B1 (protein) ETPPRFTRTPVDQTGVSGGVASFICQATGDPRPKIVWNKKGKKVSNQRFEVIEFDDGSGSVLRIQPLRTPRDEAIYECVASNNVGEISVSTRLTVLREDQIPRGFPTIDMGPQLKVVERTRTATMLCAASGNPDPEITWFKDFLPVDTSNNNGRIKQLRSGALQIEQSEESDQGKYECVATNSAGTRYSAPANLYVRELREVRRVPPRFSIPPTNHEIMPGGSVNITCVAVGSPMPYVKWMLGAEDLTPEDDMPIGRNVLELNDVRQSANYTCVAMSTLGVIEAIAQITVKA |  |  | 2.2 | > 4 | 

Continued, in another order:

Row | Kd [2] [µM] | Kd [3] [µM] | Kd (IL1RAP) [µM] | Kd (IL1RAPL1) [µM] | Molecule | further results
15 | 0.91 | 0.16 |  |  | PTPδ Ig1–Fn1, meB replaced by Gln-Leu-Glu-Gln (domain or fragment) | 
16 | 3.8 | 0.42 |  |  | PTPδ Ig1–Fn1, meB replaced by three tandem units of meB (domain or fragment) | 
17 | 0.73 | 0.81 |  |  | PTPδ Ig1–Fn1 splicing variant meA6/+ (domain or fragment) | 
18 | 2.4 |  |  |  | PTPδ Ig1–Fn1 splicing variant −/− (lacking both meA and meB) (domain or fragment) | 
19 |  |  | 2.4 | > 4 | PTPRD_A0B0 (protein) ETPPRFTRTPVDQTGVSGGVASFICQATGDPRPKIVWNKKGKKVSNQRFEVIEFDDGSGSVLRIQPLRTPRDEAIYECVASNNVGEISVSTRLTVLREDQIPRGFPTIDMGPQLKVVERTRTATMLCAASGNPDPEITWFKDFLPVDTSNNNGRIKQLRSGALQIEQSEESDQGKYECVATNSAGTRYSAPANLYVRVRRVPPRFSIPPTNHEIMPGGSVNITCVAVGSPMPYVKWMLGAEDLTPEDDMPIGRNVLELNDVRQSANYTCVAMSTLGVIEAIAQITVKA | 
20 |  |  | 2.3 | > 4 | PTPRD_A6B0 (protein) ETPPRFTRTPVDQTGVSGGVASFICQATGDPRPKIVWNKKGKKVSNQRFEVIEFDDGSGSVLRIQPLRTPRDEAIYECVASNNVGEISVSTRLTVLREDQIPRGFPTIDMGPQLKVVERTRTATMLCAASGNPDPEITWFKDFLPVDTSNNNGRIKQLRSGGTPIRGALQIEQSEESDQGKYECVATNSAGTRYSAPANLYVRVRRVPPRFSIPPTNHEIMPGGSVNITCVAVGSPMPYVKWMLGAEDLTPEDDMPIGRNVLELNDVRQSANYTCVAMSTLGVIEAIAQITVKA | 
21 |  |  | 0.68 | 0.15 | PTPRD_A9B1 (protein) ETPPRFTRTPVDQTGVSGGVASFICQATGDPRPKIVWNKKGKKVSNQRFEVIEFDDGSGSVLRIQPLRTPRDEAIYECVASNNVGEISVSTRLTVLREDQIPRGFPTIDMGPQLKVVERTRTATMLCAASGNPDPEITWFKDFLPVDTSNNNGRIKQLRSESIGGTPIRGALQIEQSEESDQGKYECVATNSAGTRYSAPANLYVRELREVRRVPPRFSIPPTNHEIMPGGSVNITCVAVGSPMPYVKWMLGAEDLTPEDDMPIGRNVLELNDVRQSANYTCVAMSTLGVIEAIAQITVKA | 
22 |  |  | 2 | 0.8 | PTPRD_A9B0 (protein) ETPPRFTRTPVDQTGVSGGVASFICQATGDPRPKIVWNKKGKKVSNQRFEVIEFDDGSGSVLRIQPLRTPRDEAIYECVASNNVGEISVSTRLTVLREDQIPRGFPTIDMGPQLKVVERTRTATMLCAASGNPDPEITWFKDFLPVDTSNNNGRIKQLRSESIGGTPIRGALQIEQSEESDQGKYECVATNSAGTRYSAPANLYVRVRRVPPRFSIPPTNHEIMPGGSVNITCVAVGSPMPYVKWMLGAEDLTPEDDMPIGRNVLELNDVRQSANYTCVAMSTLGVIEAIAQITVKA | 
23 |  |  | 0.51 | > 4 | PTPRD_A3B1 (protein) ETPPRFTRTPVDQTGVSGGVASFICQATGDPRPKIVWNKKGKKVSNQRFEVIEFDDGSGSVLRIQPLRTPRDEAIYECVASNNVGEISVSTRLTVLREDQIPRGFPTIDMGPQLKVVERTRTATMLCAASGNPDPEITWFKDFLPVDTSNNNGRIKQLRSESIGALQIEQSEESDQGKYECVATNSAGTRYSAPANLYVRELREVRRVPPRFSIPPTNHEIMPGGSVNITCVAVGSPMPYVKWMLGAEDLTPEDDMPIGRNVLELNDVRQSANYTCVAMSTLGVIEAIAQITVKA | 
